Results reported in patent US20250206819A1 (MorphoSys, published 2025).
Several values for one entry are separate records, joined by “and”; a condition that tells them apart may be missing. Identical values can stand only once.

B1: BissIg_18_opt_VH#1 (bispecific antibody, V domains shown)
VH 1: not shown
VL 1: not shown
VH 2: EVQLVESGGGLVQPGGSLRLSCAASGFSFGSHYMSWVRQAPGKGLEWVANINQIGYSSYYVESVKGRFTISRDNAKNSLYLQMNSLRAEDTAVYYCARGYSAEFAHRSGLDVWGQGTLVTVSS
VL 2: QSVLTQPPSASGTPGQRVTISCSGSSSNIGSNYVYWYQQLPGTAPKLLIYRNNQRPSGVPDRFSGSKSGTSASLAISGLRSEDEADYYCAAWDHHRSGAVFGGGTKLTVLGQ
notes: 1+1 IgG1 made by Fab-arm exchange; AEASS Fc; F405L in the CD3 half, K409R in the HER2 half
B2: BissIg_18_opt_VL (bispecific antibody, V domains shown)
VH 1: not shown
VL 1: not shown
VH 2: EVQLVESGGGLVQPGGSLRLSCAASGFTFSSYWMSWVRQAPGKGLEWVANIKQDGSEKYYVDSVKGRFTISRDNAKNSLYLQMNSLRAEDTAVYYCARGYSAEFAHRSGLDVWGQGTLVTVSS
VL 2: QSVLTQPPSASGTPGQRVTISCSGSSSNIGSNYVYWYQQLPGTAPKLLIYRNNQRPSGVPDRFSGSKSGTSASLAISGLRSEDEADYYCAGWSRSLHGAVFGGGTKLTVLGQ
notes: as for B1
B3: Bisslg_08_#GP (bispecific antibody)
VH: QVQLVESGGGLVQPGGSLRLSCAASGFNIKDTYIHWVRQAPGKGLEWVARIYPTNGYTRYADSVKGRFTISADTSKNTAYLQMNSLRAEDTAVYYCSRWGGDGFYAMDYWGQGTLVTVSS
VL: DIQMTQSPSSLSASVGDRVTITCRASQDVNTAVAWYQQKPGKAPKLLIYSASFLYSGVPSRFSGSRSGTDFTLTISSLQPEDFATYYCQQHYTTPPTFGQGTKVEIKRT
scFv: QSVLTQPPSASGTPGQRVTISCSGSSSNIGSNYVYWYQQLPGTAPKLLIYRNNQRPSGVPDRFSGSKSGTSASLAISGLRSEDEADYYCAAWDHHRSGAVFGGGTKLTVLGQAQPAAPAPNAHEAPAPAQGSEVQLVESGGGLVQPGGSLRLSCAASGFTFSSYWMSWVRQAPGKGLEWVANIKQDGSEKYYVDSVKGRFTISRDNAKNSLYLQMNSLRAEDTAVYYCARGYSAEFAHRSGLDVWGQGTLVTVSS
notes: Format as Bisslg_08_#1: aglycosylated human IgG1, AEASS Fc, knob-into-hole; also called CD3-MABGP in the bispecific 2+1 Fab2-Fc-scFv format; grandparent antibody CD3-MABGP
B4: BissIg_18_opt_cc# (bispecific antibody, human IgG1, kappa, lambda)
heavy 1: not shown
light 1: not shown
heavy 2: EVQLVESGGGLVQPGGSLRLSCAASGFSFGSHYMSWVRQAPGKGLEWVANINQIGYSSYYVESVKGRFTISRDNAKNSLYLQMNSLRAEDTAVYYCARGYSAEFAHRSGLDVWGQGTLVTVSSASTKGPSVFPLAPSSKSTSGGTAALGCLVKDYFPEPVTVSWNSGALTSGVHTFPAVLQSSGLYSLSSVVTVPSSSLGTQTYICNVNHKPSNTKVDKRVEPKSCDKTHTCPPCPAPEAEGAPSVFLFPPKPKDTLMISRTPEVTCVVVDVSHEDPEVKFNWYVDGVEVHNAKTKPREEQYNSTYRVVSVLTVLHQDWLNGKEYKCKVSNKALPSSIEKTISKAKGQPREPQVYTLPPSREEMTKNQVSLTCLVKGFYPSDIAVEWESNGQPENNYKTTPPVLDSDGSFLLYSKLTVDKSRWQQGNVFSCSVMHEALHNHYTQKSLSLSPGK
light 2: not shown

Legend:
[1] = biological target: Mature human CD3e(22-118)_FLAG-chLys_Avi (human); test: BLI (Octet), bispecific captured, antigen as analyte
Sequence of Mature human CD3e(22-118)_FLAG-chLys_Avi (human) (chain, as listed by the source limits assumed): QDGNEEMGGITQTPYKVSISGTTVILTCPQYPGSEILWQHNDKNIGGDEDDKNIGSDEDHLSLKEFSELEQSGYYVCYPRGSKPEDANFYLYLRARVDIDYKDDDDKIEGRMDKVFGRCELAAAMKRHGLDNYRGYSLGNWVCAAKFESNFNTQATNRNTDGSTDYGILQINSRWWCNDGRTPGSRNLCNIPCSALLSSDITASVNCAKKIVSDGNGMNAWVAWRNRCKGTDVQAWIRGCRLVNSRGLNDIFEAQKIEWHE
Protocol: (§1) Affinity determination by determining kinetic rate constants was performed on an Octet HTX (FortéBIO, Sartorius AG) instrument. […] The association phase was recorded for 180 s, followed by a dissociation phase of 300 s. After each cycle, the biosensors were regenerated two times with 10 mM Glycine HCl pH 1.7 to remove bound ligand/antibody complex, while maintaining the integrity of the capture surface. Between regeneration steps, biosensors were washed with assay buffer for 20 s. Sensorgrams were evaluated with Data Analysis Software v 10 (Octet/fortébio). All sensorgrams were fitted to a 1:1 binding model to determine kₒₙ and koff rate constants, which were used to calculate the KD value. For kinetic profiles deviating from the expected 1:1 binding, the sensorgrams were evaluated using a best approximation to the monovalent kinetics, and results marked with comment “heterogeneous binding”.

[2] = biological target: T1, human CD3 expressed on cells (Jurkat cells, human T cells) (human, UniProt P07766 22-207); test: cell-based or functional assay
T1 sequence (P07766 22-207): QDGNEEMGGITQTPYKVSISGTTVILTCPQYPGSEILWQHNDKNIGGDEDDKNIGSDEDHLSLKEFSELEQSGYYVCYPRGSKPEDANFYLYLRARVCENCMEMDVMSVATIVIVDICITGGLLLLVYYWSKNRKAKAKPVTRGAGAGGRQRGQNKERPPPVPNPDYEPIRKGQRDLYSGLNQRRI

[3] = biological target: T1, human CD3 expressed on cells (Jurkat …); test: cell-based or functional assay; remark: listed apart in the source
[4] = biological target: T1, human CD3 expressed on cells (Jurkat …); test: flow cytometry on Jurkat cells
Protocol: Target cells were mixed with the bispecific antibodies serially diluted (final concentration: 0.1 nM-200 nM) in D-PBS (Gibco) containing 3% fetal bovine serum (Sigma, #F7524) and incubated for 1 h on ice. Cells were washed 2 times in D-PBS (Gibco) containing 3% fetal bovine serum (Sigma, #F7524) and 0.02% […]. […] Antibody staining was measured using FACS Array (Beckton Dickinson) or IntelliCyt iQue flow cytometer and analyzed in FlowJo or ForeCyt (IntelliCyt) softwares, respectively. EC₅₀ values were calculated using 4-parameter non-linear regression analysis in Prism software (GraphPad Software Inc.).

[5] = biological target: Mature human CD3e(22-118)_FLAG-chLys_Avi (human); test: BLI (Octet), bispecific captured, antigen as analyte; heterogenous binding
Protocol: as §1

[6] = biological target: Mature human CD3e(22-118)_FLAG-chLys_Avi (human); test: BLI (Octet), bispecific captured, antigen as analyte; remark: listed apart in the source
Protocol: Sensorgrams were evaluated with Data Analysis Software v 10 (Octet/fortébio). All sensorgrams were fitted to a 1:1 binding model to determine kₒₙ and koff rate constants, which were used to calculate the KD value. For kinetic profiles deviating from the expected 1:1 binding, the sensorgrams were evaluated using a best approximation to the monovalent kinetics, and results marked with comment “heterogeneous binding”.

[7] = biological target: T2, Mature human CD3e(22-49)_Fc2(K105-K330) (human); test: ELISA, antigen coated on plate
T2 construct: also called hCD3e(22-49)-Fc2(K105-K330); recombinant human CD3e (22-49)-Fc2 (K105-K330)
Protocol: (§2) Bispecific Fab₂-Fc-scFv antibodies according Example 1.2 were tested for their ability to bind to recombinant human and cynomolgus CD3epsilon antigen in ELISA. 5 nM of recombinant human CD3e (22-49)-Fc2 (K105-K330) (SEQ ID NO: 41) or 1 nM of recombinant cynomolgus CD3e (22-49)-Fc2(K105-K330) (SEQ ID NO: 42) were coated on Maxisorp plates (Nunc, #460518). Coated plates were blocked with 5% skim milk in PBS. Antibodies were serially diluted in PBS containing 0.5% skim milk and 0.5% Tween-20. […] EC₅₀ values were calculated using 4-parameter non-linear regression analysis in Prism software (GraphPad Software Inc.)

[8] = biological target: T3, Mature cynomolgus CD3e(22-49)_Fc2(K105-K330) (cynomolgus); test: ELISA, antigen coated on plate
T3 construct: also called cyCD3e(22-49)-Fc2(K105-K330); recombinant cynomolgus CD3e (22-49)-Fc2(K105-K330)
Protocol: as §2

[9] = biological target: T1, human CD3 expressed on cells (Jurkat …); test: cell-based or functional assay; remark: listed apart in the source
[10] = biological target: T1, human CD3 expressed on cells (Jurkat …); test: flow cytometry on human T cells, 167 nM antibody

Row | Binder | koff [1] | kon [1] | T cell mediated killing MCF-7 [T cells] IC50 [pM] [2] | T cell mediated killing SKBR3 [PBMCs] IC50 [pM] [2] | Reporter gene assay MCF-7 EC50 [3] | Reporter gene assay SKOV3 EC50 [3] | EC50 [4] | Kd [5] | Kd [6] | EC50 [7] | EC50 [8] | RGA @ antibody conc. of 1 nM [S/BG] SKBR3 (Jurkat NFAT reporter gene assay) [9] | T cell binding @ antibody conc. of 167 nM [S/BG] [10]
1 | B1 | 0.0044 s⁻¹ | 250000 M⁻¹ s⁻¹ | 210 pM | 15 pM | 0.33 nM | 0.18 nM | 9 nM | 17 nM | – | – | – | – | –
2 | B2 | 0.0041 s⁻¹ | 150000 M⁻¹ s⁻¹ | – | – | – | – | – | 28 nM | – | – | – | – | –
3 | B3 | – | – | – | – | – | – | – | – | 240 nM | 248 nM | 369 nM | 1 S/BG | 1.4 S/BG
4 | B4 | 0.0011 s⁻¹ | 1.2e+06 M⁻¹ s⁻¹ | < 10 pM and 13.2 pM | 1.8 pM | < 0.2 nM | 0.07 nM | 7 nM | 0.9 nM | – | – | – | – | –
